In publication PMC12851022, “Targeting the Spliceosomal Protein USP39 Through Allosteric Ligands and PROTAC‐Induced Degradation” (Angewandte Chemie (International Ed. in English), 2025) one finds DC50 of USP39 PROTAC V1-induced degradation of USP39-OFP, fluorescence assay in HEK293T cells co-expressing USP39 OFP and VHL WT-EGFP and fold reduction of USP39 PROTAC V1-induced degradation of USP39-OFP against cells with VHL WT-EGFP, fluorescence assay in HEK293T cells expressing VHL m data, which are given here for 1 molecule.

The target of one assay is VHL_WT-EGFP (UniProt P40337).
Chain of VHL_WT-EGFP (P40337 whole entry): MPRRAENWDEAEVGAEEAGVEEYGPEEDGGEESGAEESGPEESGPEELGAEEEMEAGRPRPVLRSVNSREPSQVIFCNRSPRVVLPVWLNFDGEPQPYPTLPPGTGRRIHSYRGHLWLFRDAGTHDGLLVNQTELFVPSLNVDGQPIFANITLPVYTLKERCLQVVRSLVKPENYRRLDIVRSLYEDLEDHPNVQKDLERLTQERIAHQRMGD
Another assay addresses VHL_m (Δ91–121) (UniProt P40337).

Chain of VHL_m (Δ91–121) (P40337 other isoform, or with tags, fused parts or gaps mutant): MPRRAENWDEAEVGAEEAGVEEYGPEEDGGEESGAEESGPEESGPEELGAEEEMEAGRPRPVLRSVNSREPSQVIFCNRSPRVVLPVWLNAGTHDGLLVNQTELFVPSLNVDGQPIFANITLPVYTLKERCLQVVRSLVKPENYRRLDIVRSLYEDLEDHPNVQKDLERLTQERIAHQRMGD

B1: USP39-OFP (natural protein)
chain: MSGRSKRESRGSTRGKRESESRGSSGRVKRERDREREPEAASSRGSPVRVKREFEPASAREAPASVVPFVRVKREREVDEDSEPEREVRAKNGRVDSEDRRSRHCPYLDTINRSVLDFDFEKLCSISLSHINAYACLVCGKYFQGRGLKSHAYIHSVQFSHHVFLNLHTLKFYCLPDNYEIIDSSLEDITYVLKPTFTKQQIANLDKQAKLSRAYDGTTYLPGIVGLNNIKANDYANAVLQALSNVPPLRNYFLEEDNYKNIKRPPGDIMFLLVQRFGELMRKLWNPRNFKAHVSPHEMLQAVVLCSKKTFQITKQGDGVDFLSWFLNALHSALGGTKKKKKTIVTDVFQGSMRIFTKKLPHPDLPAEEKEQLLHNDEYQETMVESTFMYLTLDLPTAPLYKDEKEQLIIPQVPLFNILAKFNGITEKEYKTYKENFLKRFQLTKLPPYLIFCIKRFTKNNFFVEKNPTIVNFPITNVDLREYLSEEVQAVHKNTTYDLIANIVHDGKPSEGSYRIHVLHHGTGKWYELQDLQVTDILPQMITLSEAYIQIWKRRDNDETNQQGA
B1 gave a DC50 of USP39 PROTAC V1-induced degradation of USP39-OFP, fluorescence assay in HEK293T cells co-expressing USP39 OFP and VHL WT-EGFP with VHL_WT-EGFP of 1 nM. Also, the fold reduction of USP39 PROTAC V1-induced degradation of USP39-OFP against cells with VHL WT-EGFP, fluorescence assay in HEK293T cells expressing VHL m in the assay with VHL_m (Δ91–121) is greater than 80 fold.
